# Test results published in patent publication US20170029894A1 (Novartis, published 2017).
# B1: ANTIBODY 01951/G12 (antibody, human IgG1, kappa, V domains shown)
# VH: EVQLVESGGGVVQPGRSLRLSCAASGFTFSSYGMHWVRQAPGKGLEWVAIIWYDGSNKYYADSVKGRFTISRDNSKNTLYLQMNSLRAEDTAVYYCARLWFGDLDAFDIWGQGTMVTVSS
# VL: EIVLTQSPATLSLSPGERAILSCRAGQSVSSYLVWYQQKPGQAPRLLIYDASNRATGIPARFSGSGSGTDFTLTISSLEPEDFAVYYCQQRSSWPPVYTFGQGTKLEIKR
# notes: also called target antibody
# What was measured:
# Assay in all cases: peptide array of 15-mer IL-13 peptides
# [1] = molecular target: IL-13 peptide 3 (…) (human)
# [2] = molecular target: IL-13 peptide 27 (…) (human)
# [3] = molecular target: IL-13 peptide 25 (…) (human)
# [4] = molecular target: IL-13 peptide 12 (…) (human)
# [5] = molecular target: IL-13 peptide 24 (…) (human)
# [6] = molecular target: IL-13 peptide 1 (…) (human)
# [7] = molecular target: IL-13 peptide 20 (…) (human)
# [8] = molecular target: IL-13 peptide 26 (…) (human)
# [9] = molecular target: IL-13 peptide 22 (…) (human)
# [10] = molecular target: IL-13 peptide 15 (…) (human)
# [11] = molecular target: IL-13 peptide 30 (…) (human)
# [12] = molecular target: IL-13 peptide 29 (…) (human)
# [13] = molecular target: IL-13 peptide 10 (…) (human)
# [14] = molecular target: IL-13 peptide 13 (…) (human)
# [15] = molecular target: IL-13 peptide 2 (…) (human)
# [16] = molecular target: IL-13 peptide 19 (…) (human)
# [17] = molecular target: IL-13 peptide 14 (…) (human)
# [18] = molecular target: IL-13 peptide 21 (…) (human)
# [19] = molecular target: IL-13 peptide 23 (…) (human)
# [20] = molecular target: IL-13 peptide 17 (…) (human)
# [21] = molecular target: IL-13 peptide 16 (…) (human)
# [22] = molecular target: IL-13 peptide 11 (…) (human)
# [23] = molecular target: IL-13 peptide 28 (…) (human)
# [24] = molecular target: IL-13 peptide 18 (…) (human)
# [25] = molecular target: T1, IL-13 peptide 15 (GMYCAALESLINVSG) (human)
# T1 peptide: GMYCAALESLINVSG
# Experimental: (§1) The sequence of IL-13 was probed at the peptide level to identify the binding site with ANTIBODY 01951/G12. Thirty four 15-mer peptides were synthesized in order to scan the entire sequence with 12 residue overlap starting from the N-terminus. The synthesis of the peptides, preparation of the peptide-array slides, incubation with antibodies and data analysis where done as described by Maksimov et al. (PLoS ONE 7(3): e34212).
# (§2) The binding signal intensity (light unit) observed is reported for each peptide, in column 1 against a control unrelated human antibody and in column 2 against ANTIBODY 01951/G12. Signals above 10000 Light Units are considered as being significant. 2 overlapping peptides in the set of the 34 peptides produced a signal above that threshold, peptide 22 ([…]) (SEQ ID NO: 31) and peptide 23 ([…]) (SEQ ID NO: 32). The overlapping sequence between both peptides is […] (SEQ ID NO: 33).
# [26] = molecular target: T2, IL-13 peptide 28 (SSLHVRDTKIEVAQF) (human)
# T2 peptide: SSLHVRDTKIEVAQF
# Experimental: as §1, §2
# [27] = molecular target: T3, IL-13 peptide 32 (AQFVKDLLLHLKKLF) (human)
# T3 peptide: AQFVKDLLLHLKKLF
# Experimental: as §1, §2
# [28] = molecular target: T4, IL-13 peptide 31 (IEVAQFVKDLLLHLK) (human)
# T4 peptide: IEVAQFVKDLLLHLK
# Experimental: as §1, §2
# [29] = molecular target: T5, IL-13 peptide 10 (PLCNGSMVWSINLTA) (human)
# T5 peptide: PLCNGSMVWSINLTA
# Experimental: as §1, §2
# [30] = molecular target: T6, IL-13 peptide 25 (PHKVSAGQFSSLHVR) (human)
# T6 peptide: PHKVSAGQFSSLHVR
# Experimental: as §1, §2
# [31] = molecular target: T7, IL-13 peptide 33 (VKDLLLHLKKLFREG) (human)
# T7 peptide: VKDLLLHLKKLFREG
# Experimental: as §1, §2
# [32] = molecular target: T8, IL-13 peptide 6 (EELVNITQNQKAPLC) (human)
# T8 peptide: EELVNITQNQKAPLC
# Experimental: as §1, §2
# [33] = molecular target: T9, IL-13 peptide 23 (MLSGFCPHKVSAGQF) (human)
# T9 peptide: MLSGFCPHKVSAGQF
# Experimental: as §1, §2
# [34] = molecular target: T10, IL-13 peptide 19 (VSGCSAIEKTQRMLS) (human)
# T10 peptide: VSGCSAIEKTQRMLS
# Experimental: as §1, §2
# [35] = molecular target: T11, IL-13 peptide 3 (PSTALRELIEELVNI) (human)
# T11 peptide: PSTALRELIEELVNI
# Experimental: as §1, §2
# [36] = molecular target: T12, IL-13 peptide 20 (CSAIEKTQRMLSGFC) (human)
# T12 peptide: CSAIEKTQRMLSGFC
# Experimental: as §1, §2
# [37] = molecular target: T13, IL-13 peptide 26 (VSAGQFSSLHVRDTK) (human)
# T13 peptide: VSAGQFSSLHVRDTK
# Experimental: as §1, §2
# [38] = molecular target: T14, IL-13 peptide 1 (SPGPVPPSTALRELI) (human)
# T14 peptide: SPGPVPPSTALRELI
# Experimental: as §1, §2
# [39] = molecular target: T15, IL-13 peptide 8 (TQNQKAPLCNGSMVW) (human)
# T15 peptide: TQNQKAPLCNGSMVW
# Experimental: as §1, §2
# [40] = molecular target: T16, IL-13 peptide 13 (SINLTAGMYCAALES) (human)
# T16 peptide: SINLTAGMYCAALES
# Experimental: as §1, §2
# [41] = molecular target: T17, IL-13 peptide 17 (LESLINVSGCSAIEK) (human)
# T17 peptide: LESLINVSGCSAIEK
# Experimental: as §1, §2
# [42] = molecular target: T18, IL-13 peptide 7 (VNITQNQKAPLCNGS) (human)
# T18 peptide: VNITQNQKAPLCNGS
# Experimental: as §1, §2
# [43] = molecular target: T19, IL-13 peptide 21 (IEKTQRMLSGFCPHK) (human)
# T19 peptide: IEKTQRMLSGFCPHK
# Experimental: as §1, §2
# [44] = molecular target: T20, IL-13 peptide 18 (LINVSGCSAIEKTQR) (human)
# T20 peptide: LINVSGCSAIEKTQR
# Experimental: as §1, §2
# [45] = molecular target: T21, IL-13 peptide 27 (GQFSSLHVRDTKIEV) (human)
# T21 peptide: GQFSSLHVRDTKIEV
# Experimental: as §1, §2
# [46] = molecular target: T22, IL-13 peptide 22 (TQRMLSGFCPHKVSA) (human)
# T22 peptide: TQRMLSGFCPHKVSA
# Experimental: as §1, §2
# [47] = molecular target: T23, IL-13 peptide 16 (CAALESLINVSGCSA) (human)
# T23 peptide: CAALESLINVSGCSA
# Experimental: as §1, §2
# [48] = molecular target: T24, IL-13 peptide 14 (LTAGMYCAALESLIN) (human)
# T24 peptide: LTAGMYCAALESLIN
# Experimental: as §1, §2
# [49] = molecular target: T25, IL-13 peptide 2 (PVPPSTALRELIEEL) (human)
# T25 peptide: PVPPSTALRELIEEL
# Experimental: as §1, §2
# [50] = molecular target: T26, IL-13 peptide 30 (DTKIEVAQFVKDLLL) (human)
# T26 peptide: DTKIEVAQFVKDLLL
# Experimental: as §1, §2
# [51] = molecular target: T27, IL-13 peptide 4 (ALRELIEELVNITQN) (human)
# T27 peptide: ALRELIEELVNITQN
# Experimental: as §1, §2
# [52] = molecular target: T28, IL-13 peptide 29 (HVRDTKIEVAQFVKD) (human)
# T28 peptide: HVRDTKIEVAQFVKD
# Experimental: as §1, §2
# [53] = molecular target: T29, IL-13 peptide 12 (MVWSINLTAGMYCAA) (human)
# T29 peptide: MVWSINLTAGMYCAA
# Experimental: as §1, §2
# [54] = molecular target: T30, IL-13 peptide 5 (ELIEELVNITQNQKA) (human)
# T30 peptide: ELIEELVNITQNQKA
# Experimental: as §1, §2
# [55] = molecular target: T31, IL-13 peptide 34 (LLLHLKKLFREGRFN) (human)
# T31 peptide: LLLHLKKLFREGRFN
# Experimental: as §1, §2
# [56] = molecular target: T32, IL-13 peptide 11 (NGSMVWSINLTAGMY) (human)
# T32 peptide: NGSMVWSINLTAGMY
# Experimental: as §1, §2
# [57] = molecular target: T33, IL-13 peptide 9 (QKAPLCNGSMVWSIN) (human)
# T33 peptide: QKAPLCNGSMVWSIN
# Experimental: as §1, §2
molecule,measurement,setting,value
control unrelated human antibody,Corrected Mean signal intensity (Light Unit),[1],-7.3 Light Unit
same,Corrected Mean signal intensity (Light Unit),[2],-10.5 Light Unit
same,Corrected Mean signal intensity (Light Unit),[3],-24.7 Light Unit
same,Corrected Mean signal intensity (Light Unit),[4],19 Light Unit
same,Corrected Mean signal intensity (Light Unit),[5],3.3 Light Unit
same,Corrected Mean signal intensity (Light Unit),[6],44.3 Light Unit
same,Corrected Mean signal intensity (Light Unit),[7],26 Light Unit
same,Corrected Mean signal intensity (Light Unit),[8],3.7 Light Unit
same,Corrected Mean signal intensity (Light Unit),[9],123 Light Unit
same,Corrected Mean signal intensity (Light Unit),[10],1 Light Unit
same,Corrected Mean signal intensity (Light Unit),[11],-13 Light Unit
same,Corrected Mean signal intensity (Light Unit),[12],-17 Light Unit
same,Corrected Mean signal intensity (Light Unit),[13],-6.5 Light Unit
same,Corrected Mean signal intensity (Light Unit),[14],-1.5 Light Unit
same,Corrected Mean signal intensity (Light Unit),[15],-9 Light Unit
same,Corrected Mean signal intensity (Light Unit),[16],15 Light Unit
same,Corrected Mean signal intensity (Light Unit),[17],1 Light Unit
same,Corrected Mean signal intensity (Light Unit),[18],101 Light Unit
same,Corrected Mean signal intensity (Light Unit),[19],23 Light Unit
same,Corrected Mean signal intensity (Light Unit),[20],18.7 Light Unit
same,Corrected Mean signal intensity (Light Unit),[21],1 Light Unit
same,Corrected Mean signal intensity (Light Unit),[22],-5 Light Unit
same,Corrected Mean signal intensity (Light Unit),[23],-6 Light Unit
same,Corrected Mean signal intensity (Light Unit),[24],12.5 Light Unit
B1,Corrected Mean signal intensity (Light Unit),[25],-987 Light Unit
same,Corrected Mean signal intensity (Light Unit),[26],-170 Light Unit
same,Corrected Mean signal intensity (Light Unit),[27],-746 Light Unit
same,Corrected Mean signal intensity (Light Unit),[28],-810 Light Unit
same,Corrected Mean signal intensity (Light Unit),[29],-982 Light Unit
same,Corrected Mean signal intensity (Light Unit),[30],-386 Light Unit
same,Corrected Mean signal intensity (Light Unit),[31],-203 Light Unit
same,Corrected Mean signal intensity (Light Unit),[32],1 Light Unit
same,binding result,[32],no binding (tested: 10000 Light Units)
same,Corrected Mean signal intensity (Light Unit),[33],48100 Light Unit
same,Corrected Mean signal intensity (Light Unit),[34],-830 Light Unit
same,Corrected Mean signal intensity (Light Unit),[35],-210 Light Unit
same,Corrected Mean signal intensity (Light Unit),[36],-721 Light Unit
same,Corrected Mean signal intensity (Light Unit),[37],-778 Light Unit
same,Corrected Mean signal intensity (Light Unit),[38],-1070 Light Unit
same,Corrected Mean signal intensity (Light Unit),[39],-350 Light Unit
same,Corrected Mean signal intensity (Light Unit),[40],-757 Light Unit
same,Corrected Mean signal intensity (Light Unit),[41],-340 Light Unit
same,Corrected Mean signal intensity (Light Unit),[42],-405 Light Unit
same,Corrected Mean signal intensity (Light Unit),[43],2210 Light Unit
same,Corrected Mean signal intensity (Light Unit),[44],-539 Light Unit
same,Corrected Mean signal intensity (Light Unit),[45],-291 Light Unit
same,Corrected Mean signal intensity (Light Unit),[46],38600 Light Unit
same,Corrected Mean signal intensity (Light Unit),[47],-587 Light Unit
same,Corrected Mean signal intensity (Light Unit),[48],-99.7 Light Unit
same,Corrected Mean signal intensity (Light Unit),[49],-1130 Light Unit
same,Corrected Mean signal intensity (Light Unit),[50],-438 Light Unit
same,Corrected Mean signal intensity (Light Unit),[51],-207 Light Unit
same,Corrected Mean signal intensity (Light Unit),[52],-734 Light Unit
same,Corrected Mean signal intensity (Light Unit),[53],56.5 Light Unit
same,binding result,[53],no binding (tested: 10000 Light Units)
same,Corrected Mean signal intensity (Light Unit),[54],-131 Light Unit
same,Corrected Mean signal intensity (Light Unit),[55],7150 Light Unit
same,Corrected Mean signal intensity (Light Unit),[56],-132 Light Unit
same,Corrected Mean signal intensity (Light Unit),[57],-518 Light Unit
same,Corrected Mean signal intensity (Light Unit),[5],493 Light Unit
